We go through three substances from article PMC11912111 (Advanced Healthcare Materials, 2025).

Where two headings read alike, the source gives them in different places.

The nature of data set [1]: Teduglutide stability in the foam after the gassing process. To be noted: Ted-loaded foam and effervescence-like formulation, n = 3 (Figure S3). In kind it is physicochemical.
The test system of the next data set is GLP-1R. The note with it: GL can also activate GLP-1R; cited from earlier work.
The conditions of data set [2]: cited from earlier work.

teduglutide: the “stability of Ted after the foaming process (concentration change)” value in data set [1] was “degraded after the foaming process”.

Turning to Glepaglutide, the “binding affinity at GLP-1R” value with GLP-1R is reported as “low binding affinity”. Further, in data set [2] (in humans), the elimination half-life entry was “up to 50 h”.

On to Glucagon-like peptide 2 [GLP-2], for which the elimination half-life in data set [2] (native GLP-2, healthy individuals, breakdown by DPP-4) was 7 min.
